Data from article PMC4126857 (Structure (London, England : 1993), 2014).
Positions count from the first letter of the chain named. Where no end group is shown, it is not given here.

B1: MBP-CeSPD-2 AR (aa 1-46), WT (domain or fragment, C. elegans, UniProt P91870 1-46, looked up)
chain: MEDDAPMNLCNEQFEEIEDSPIDDNDNESFYNADGDVELEEEEVHE
modifications: also: MBP fusion
B2: Drosophila Plk4 cryptic polo box (DmPlk4 CPB), aa 383-601 (domain or fragment, UniProt O97143 383-601, looked up)
chain: RISVPPLNTKRLLPTRYKTKNAIMSILRNGEVVLEFLKFRPTYNEDRINDICRISDDGQRIIIYQPDPGRGLPVREQPPDLQIPSGDCVYNYDNLPSKHWKKYIYGARFVGLVKSKTPKVTYFSTLGKCQLMETMTDFEIRFYSGAKLLKTPSEGLKVYDRNGMLLSDYSCSESRSLIEHGNECFTHCVNISNALEVAQTKDNSCFPVTIGRRPITDVQ
modifications: for crystallization: lysine methylated; for MST: labelled with Monolith NT.115 Labeling Kit RED-NHS
B3: ZYG-1 cryptic polo box (CPB), aa 338-564 (domain or fragment, C. elegans, UniProt Q9GT24 338-564, looked up)
chain: GTVPPSREDRNRSQLWPIRMDRLEGQRVCTAGGRYIVELDTRCRFEVAAQGNFVKRILIVEVDEMVQTVYVHRIPDRTVRGRNGEEELITLTNNPFVYTSYSQMPKEVQNDYMRLQKMVAVTISGRVAKVTFRRPSQFPDAQAQLMENGDLRIKLPRSVIVRKMDNGEIFNCIDGIATQKQAVSGITLTKVNEVYKYLIRFEQCLNGMDRGMVCFPIVFSAGTNMVG
modifications: for crystallization: selenomethionine-substituted, lysine methylated; for MST: labelled with Monolith NT.115 Labeling Kit RED-NHS

Assays:
[1] = molecular target: T1, 6×His-ZYG-1 CPB K454E (C. elegans, UniProt Q9GT24 338-564, K454E); experiment: pull-down
T1 sequence (looked up): B3 chain with K117E

[2] = molecular target: the molecule itself; experiment: SAXS

Binder	binding result [1]	stoichiometry N [2]
B1	binds	
B2		2
B3		2
